Substrate: NCCCNCCCCNCCCN
Assay: purified protein, by the assay type
Conditions: other: compound as substrate, Hepes 50 mM, pH 7.5, 37 °C

B1: murine SMOX (Mus musculus) (protein)
chain: MQSCESSGDSADDPLSRGLRRRGQPRVVVIGAGLAGLAAARALLEQGFTDVTVLEASSHIGGRVQSVRLGDTTFELGATWIHGSHGNPIYQLAEANGLLEETTDGERSVGRISLYSKNGVACYLTNRGCRIPKDVVEEFSDLYNEVYNMTQEFFRHGKPVNAESQNSVGVFTREKVRNRIRDDPDDTEATKRLKLAMIQQYLKVESCESSSHSIDEVSLSAFGEWTEIPGAHHIIPSGFMRVVELLAEGIPPHVIQLGKPVRCIHWDQASAHPRGPEIEPRGEGDHNHDTGEGGQSGENPQQGRWDEDEPWPVVVECEDCEVIPADHVIVTVSLGVLKRQYTSFFRPCLPTEKVAAIHRLGIGTTDKIFLEFEEPFWGPECNSLQFVWEDEAESCTLTYPPELWYRKICGFDVLYPPERYGHVLSGWICGEEALVMERCDDEAVAEICTEMLRQFTGNPNIPKPRRILRSAWGSNPYFRGSYSYTQVGSSGADVEKLAKPLPYTESSKTAPMQVLFSGEATHRKYYSTTHGALLSGQREAARLIEMYRDLFQQGP
Q: How did the Km turn out when B1 was run?
A: 495 µM
